Results published in article PMC6745501 (2019).
Read-outs that look alike come from different tables or passages of the source.

B2: Arabidopsis COP1^349–675 WD40 domain (domain or fragment)
chain: TFTRYSRLRVIAEIRHGDIFHSANIVSSIEFDRDDELFATAGVSRCIKVFDFSSVVNEPADMQCPIVEMSTRSKLSCLSWNKHEKNHIASSDYEGIVTVWDVTTRQSLMEYEEHEKRAWSVDFSRTEPSMLVSGSDDCKVKVWCTRQEASVINIDMKANICCVKYNPGSSNYIAVGSADHHIHYYDLRNISQPLHVFSGHKKAVSYVKFLSNNELASASTDSTLRLWDVKDNLPVRTFRGHTNEKNFVGLTVNSEYLACGSETNEVYVYHKEITRPVTSHRFGSPDMDDAEEEAGSYFISAVCWKSDSPTMLTANSQGTIKVLVLAA

How the values were obtained:
[1] = target: T1, COP1^349–675,Lys422Ala WD40 domain (Arabidopsis, UniProt P43254 349-675, Lys422Ala); assay: ITC
T1 sequence: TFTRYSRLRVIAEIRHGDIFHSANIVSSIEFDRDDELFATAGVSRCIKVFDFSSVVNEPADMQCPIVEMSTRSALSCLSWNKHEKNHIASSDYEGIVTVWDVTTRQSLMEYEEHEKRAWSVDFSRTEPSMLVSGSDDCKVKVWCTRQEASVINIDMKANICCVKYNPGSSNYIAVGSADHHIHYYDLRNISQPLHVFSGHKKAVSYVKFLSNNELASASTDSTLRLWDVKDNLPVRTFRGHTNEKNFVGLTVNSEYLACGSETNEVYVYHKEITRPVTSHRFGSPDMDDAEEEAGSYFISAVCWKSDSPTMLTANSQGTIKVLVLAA

[2] = target: B2; assay: ITC
[3] = target: B2; assay: ITC
[4] = target: B2
[5] = target: B2
[6] = target: T1, COP1^349–675,Lys422Ala WD40 domain; assay: ITC; remark: listed apart in the source
[7] = target: B2; assay: ITC
[8] = target: T2, UVR8^ValPro/AlaAla (recombinant) (Arabidopsis, UniProt Q9FN03 1-440, ValPro/AlaAla)
T2 sequence: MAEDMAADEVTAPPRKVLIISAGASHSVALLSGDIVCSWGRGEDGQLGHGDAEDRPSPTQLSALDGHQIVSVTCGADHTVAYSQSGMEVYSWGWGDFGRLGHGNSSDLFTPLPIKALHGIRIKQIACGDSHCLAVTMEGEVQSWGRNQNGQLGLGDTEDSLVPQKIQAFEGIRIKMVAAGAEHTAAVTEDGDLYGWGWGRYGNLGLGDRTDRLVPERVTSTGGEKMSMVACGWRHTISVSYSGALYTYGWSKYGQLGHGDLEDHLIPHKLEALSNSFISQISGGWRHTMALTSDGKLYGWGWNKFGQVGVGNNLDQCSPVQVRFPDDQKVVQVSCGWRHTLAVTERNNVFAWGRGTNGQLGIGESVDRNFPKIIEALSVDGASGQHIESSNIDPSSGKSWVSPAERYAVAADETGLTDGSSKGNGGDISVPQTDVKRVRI

[9] = target: UVR8^HY5C44 chimera (recombinant) (Arabidopsis, UniProt Q9FN03); assay: UV-B-activated chimera
[10] = target: B2
[11] = target: B2
[12] = target: T3, COP1^Tyr441Ala WD40 domain (Arabidopsis, UniProt P43254 349-675, Tyr441Ala); assay: ITC
T3 sequence: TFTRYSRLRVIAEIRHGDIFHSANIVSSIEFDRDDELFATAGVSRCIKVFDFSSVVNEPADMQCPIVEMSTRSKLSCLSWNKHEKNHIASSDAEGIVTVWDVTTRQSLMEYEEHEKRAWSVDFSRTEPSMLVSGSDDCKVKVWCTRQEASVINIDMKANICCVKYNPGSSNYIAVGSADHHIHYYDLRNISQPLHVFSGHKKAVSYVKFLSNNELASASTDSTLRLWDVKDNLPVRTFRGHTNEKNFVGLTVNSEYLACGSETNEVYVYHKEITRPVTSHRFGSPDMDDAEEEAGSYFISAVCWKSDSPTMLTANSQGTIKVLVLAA

GYGIVPSF [CO^366–373 VP peptide]
Kd [1]: 21 µM | Kd [2]: 74 µM

SDQIVPEY [TRIB1 VP peptide]
Kd [3]: 1600 nM

B1: UVR8^TRIB1VP chimera (recombinant) (other)
chain: MAEDMAADEVTAPPRKVLIISAGASHSVALLSGDIVCSWGRGEDGQLGHGDAEDRPSPTQLSALDGHQIVSVTCGADHTVAYSQSGMEVYSWGWGDFGRLGHGNSSDLFTPLPIKALHGIRIKQIACGDSHCLAVTMEGEVQSWGRNQNGQLGLGDTEDSLVPQKIQAFEGIRIKMVAAGAEHTAAVTEDGDLYGWGWGRYGNLGLGDRTDRLVPERVTSTGGEKMSMVACGWRHTISVSYSGALYTYGWSKYGQLGHGDLEDHLIPHKLEALSNSFISQISGGWRHTMALTSDGKLYGWGWNKFGQVGVGNNLDQCSPVQVRFPDDQKVVQVSCGWRHTLAVTERNNVFAWGRGTNGQLGIGESVDRNFPKIIEALSVDGASGQHIESSNIDPSSGKSWVSPAESDQIVPEY
koff [4]: 0.0319 s⁻¹ | Kd [5]: 93 nM

RYAVVPDE [UVR8^406–413 VP peptide]
Kd [6]: 16 µM | Kd [7]: 190 µM

B2
Kd [8]: 2200 nM | Kd [9]: 269 nM

B3: UVR8^HY5VP chimera (recombinant) (other)
chain: MAEDMAADEVTAPPRKVLIISAGASHSVALLSGDIVCSWGRGEDGQLGHGDAEDRPSPTQLSALDGHQIVSVTCGADHTVAYSQSGMEVYSWGWGDFGRLGHGNSSDLFTPLPIKALHGIRIKQIACGDSHCLAVTMEGEVQSWGRNQNGQLGLGDTEDSLVPQKIQAFEGIRIKMVAAGAEHTAAVTEDGDLYGWGWGRYGNLGLGDRTDRLVPERVTSTGGEKMSMVACGWRHTISVSYSGALYTYGWSKYGQLGHGDLEDHLIPHKLEALSNSFISQISGGWRHTMALTSDGKLYGWGWNKFGQVGVGNNLDQCSPVQVRFPDDQKVVQVSCGWRHTLAVTERNNVFAWGRGTNGQLGIGESVDRNFPKIIEALSVDGASGQHIESSNIDPSSGKSWVSPAEEIRRVPEFTGLTDGSSKGNGGDISVPQTDVKRVRI
koff [4]: 0.0532 s⁻¹ | Kd [5]: 69 nM

GFGVVPSF [COL3^287–294 VP peptide]
Kd [1]: 7.8 µM | Kd [2]: 39 µM

B4: full‐length HY5 protein (recombinant) (natural protein)
chain: MQEQATSSLAASSLPSSSERSSSSAPHLEIKEGIESDEEIRRVPEFGGEAVGKETSGRESGSATGQERTQATVGESQRKRGRTPAEKENKRLKRLLRNRVSAQQARERKKAYLSELENRVKDLENKNSELEERLSTLQNENQMLRHILKNTTGNKRGGGGGSNADASL
koff [10]: 0.0832 s⁻¹ | Kd [11]: 1200 nM

NDQQVPSAV [CRY2^527–535 VP peptide]
Kd [1]: 560 µM | Kd [2]: 21 µM

EDQMVPSIT [CRY1^544–552 VP peptide]
Kd [1]: 76 µM | Kd [2]: 3 µM

EIRRVPEFGG [HY5^39–48 VP peptide]
Kd [6]: 23 µM | Kd [7]: 23 µM | Kd [12]: 230 µM
